Data from patent US10919943B2, “Mutant proteins enabling agrochemical control of plant gene expression” (The Regents of the University of California, priority 2016, dated 2021).

system: HAB1; test: Yeast two hybrid of pBD-PYR1 site saturation mutants with pACT-HAB1 on 10 μM ABA, β-galactosidase staining; format: cell-based, Arabidopsis; design: key: x: Mutations in PYR1 that disrupt ABA-induced binding to PYR1 to HAB1; conditions: S. cerevisiae Y190, 10 μM ABA; dead = lack of visible staining in comparison to wild type control
Text: To systematically identify mutations in PYR1 that disrupt its binding to HAB1, we utilized a collection of saturating mutations that contain all possible single amino acid substitutions in 24 conserved interface residues involved in binding HAB1, which was previously constructed for the purpose of engineering constitutively active ABA receptor variants (Mosquna et al., 2011). The interface residues previously mutagenized in this collection are the following: H60, F61, I62, K63, I84, S85, G86, L87, P88, A89, H115, R116, L117, P148, G150, N151, D154, D155, T156, M158, F159, T162, L166, K170. This set was made by mutagenizing a pBD-PYR1 template that encodes a GAL4-DNA binding domain fusion to PYR1, which can be used to assess receptor-HAB1 binding in S. cerevisiae strains co-transformed with pACT-HAB1, which expresses a GAL4 activation domain fusion to HAB1. Mutant pBD-PYR1 clones from the collection are maintained in S. cerevisiae strain Y190 co-transformed with pACT-HAB1. The test strains were spotted onto agar plates containing synthetic dextrose dropout media lacking leucine and tryptophan [SD (-Leu, -Trp)] medium supplemented with 10 μM ABA. After incubating the test plates at 30° C. for two days, colonies were chloroform lysed and stained to reveal […] expression levels and “dead” mutants were defined by lack of visible staining in comparison to a wild type control. This effort defined 237 mutations that disrupt ABA-induced binding of PYR1 to HAB1 (Table 1). Premade yeast drop out supplements (Clontech) were utilized in this and other examples for media preparation, amino acids and other standard chemicals were purchased from Sigma-Aldrich (USA). The naturally occurring (+)-ABA isomer was used in all experiments and purchased from Biosynth Ag (Switzerland).

Row | Molecule | Mutations in PYR1 that disrupt ABA-induced binding to PYR1 to HAB1
1 | P88S: PYR1 mutant (protein, UniProt O49686 1-191, looked up, variant P88S) Abscisic acid receptor PYR1: MPSELTPEERSELKNSIAEFHTYQLDPGSCSSLHAQRIHAPPELVWSIVRRFDKPQTYKHFIKSCSVEQNFEMRVGCTRDVIVISGLSANTSTERLDILDDERRVTGFSIIGGEHRLTNYKSVTTVHRFEKENRIWTVVLESYVVDMPEGNSEDDTRMFADTVVKLNLQKLATVAEAMARNSGDGSGSQVT | x
2 | P88D: PYR1 mutant (protein, UniProt O49686 1-191, looked up, variant P88D) Abscisic acid receptor PYR1: MPSELTPEERSELKNSIAEFHTYQLDPGSCSSLHAQRIHAPPELVWSIVRRFDKPQTYKHFIKSCSVEQNFEMRVGCTRDVIVISGLDANTSTERLDILDDERRVTGFSIIGGEHRLTNYKSVTTVHRFEKENRIWTVVLESYVVDMPEGNSEDDTRMFADTVVKLNLQKLATVAEAMARNSGDGSGSQVT | x
3 | P88G: PYR1 mutant (protein, UniProt O49686 1-191, looked up, variant P88G) Abscisic acid receptor PYR1: MPSELTPEERSELKNSIAEFHTYQLDPGSCSSLHAQRIHAPPELVWSIVRRFDKPQTYKHFIKSCSVEQNFEMRVGCTRDVIVISGLGANTSTERLDILDDERRVTGFSIIGGEHRLTNYKSVTTVHRFEKENRIWTVVLESYVVDMPEGNSEDDTRMFADTVVKLNLQKLATVAEAMARNSGDGSGSQVT | x
4 | P88K: PYR1 mutant (protein, UniProt O49686 1-191, looked up, variant P88K) Abscisic acid receptor PYR1: MPSELTPEERSELKNSIAEFHTYQLDPGSCSSLHAQRIHAPPELVWSIVRRFDKPQTYKHFIKSCSVEQNFEMRVGCTRDVIVISGLKANTSTERLDILDDERRVTGFSIIGGEHRLTNYKSVTTVHRFEKENRIWTVVLESYVVDMPEGNSEDDTRMFADTVVKLNLQKLATVAEAMARNSGDGSGSQVT | x
5 | P88I: PYR1 mutant (protein, UniProt O49686 1-191, looked up, variant P88I) Abscisic acid receptor PYR1: MPSELTPEERSELKNSIAEFHTYQLDPGSCSSLHAQRIHAPPELVWSIVRRFDKPQTYKHFIKSCSVEQNFEMRVGCTRDVIVISGLIANTSTERLDILDDERRVTGFSIIGGEHRLTNYKSVTTVHRFEKENRIWTVVLESYVVDMPEGNSEDDTRMFADTVVKLNLQKLATVAEAMARNSGDGSGSQVT | x
6 | P88C: PYR1 mutant (protein, UniProt O49686 1-191, looked up, variant P88C) Abscisic acid receptor PYR1: MPSELTPEERSELKNSIAEFHTYQLDPGSCSSLHAQRIHAPPELVWSIVRRFDKPQTYKHFIKSCSVEQNFEMRVGCTRDVIVISGLCANTSTERLDILDDERRVTGFSIIGGEHRLTNYKSVTTVHRFEKENRIWTVVLESYVVDMPEGNSEDDTRMFADTVVKLNLQKLATVAEAMARNSGDGSGSQVT | x
7 | P88T: PYR1 mutant (protein, UniProt O49686 1-191, looked up, variant P88T) Abscisic acid receptor PYR1: MPSELTPEERSELKNSIAEFHTYQLDPGSCSSLHAQRIHAPPELVWSIVRRFDKPQTYKHFIKSCSVEQNFEMRVGCTRDVIVISGLTANTSTERLDILDDERRVTGFSIIGGEHRLTNYKSVTTVHRFEKENRIWTVVLESYVVDMPEGNSEDDTRMFADTVVKLNLQKLATVAEAMARNSGDGSGSQVT | x
8 | P88F: PYR1 mutant (protein, UniProt O49686 1-191, looked up, variant P88F) Abscisic acid receptor PYR1: MPSELTPEERSELKNSIAEFHTYQLDPGSCSSLHAQRIHAPPELVWSIVRRFDKPQTYKHFIKSCSVEQNFEMRVGCTRDVIVISGLFANTSTERLDILDDERRVTGFSIIGGEHRLTNYKSVTTVHRFEKENRIWTVVLESYVVDMPEGNSEDDTRMFADTVVKLNLQKLATVAEAMARNSGDGSGSQVT | x
9 | P88H: PYR1 mutant (protein, UniProt O49686 1-191, looked up, variant P88H) Abscisic acid receptor PYR1: MPSELTPEERSELKNSIAEFHTYQLDPGSCSSLHAQRIHAPPELVWSIVRRFDKPQTYKHFIKSCSVEQNFEMRVGCTRDVIVISGLHANTSTERLDILDDERRVTGFSIIGGEHRLTNYKSVTTVHRFEKENRIWTVVLESYVVDMPEGNSEDDTRMFADTVVKLNLQKLATVAEAMARNSGDGSGSQVT | x
10 | P88E: PYR1 mutant (protein, UniProt O49686 1-191, looked up, variant P88E) Abscisic acid receptor PYR1: MPSELTPEERSELKNSIAEFHTYQLDPGSCSSLHAQRIHAPPELVWSIVRRFDKPQTYKHFIKSCSVEQNFEMRVGCTRDVIVISGLEANTSTERLDILDDERRVTGFSIIGGEHRLTNYKSVTTVHRFEKENRIWTVVLESYVVDMPEGNSEDDTRMFADTVVKLNLQKLATVAEAMARNSGDGSGSQVT | x

The next lines start with the values.

Row | Mutations in PYR1 that disrupt ABA-induced binding to PYR1 to HAB1 | Molecule
11 | x | P88Y: PYR1 mutant (protein, UniProt O49686 1-191, looked up, variant P88Y) Abscisic acid receptor PYR1: MPSELTPEERSELKNSIAEFHTYQLDPGSCSSLHAQRIHAPPELVWSIVRRFDKPQTYKHFIKSCSVEQNFEMRVGCTRDVIVISGLYANTSTERLDILDDERRVTGFSIIGGEHRLTNYKSVTTVHRFEKENRIWTVVLESYVVDMPEGNSEDDTRMFADTVVKLNLQKLATVAEAMARNSGDGSGSQVT
12 | x | A89N: PYR1 mutant (protein, UniProt O49686 1-191, looked up, variant A89N) Abscisic acid receptor PYR1: MPSELTPEERSELKNSIAEFHTYQLDPGSCSSLHAQRIHAPPELVWSIVRRFDKPQTYKHFIKSCSVEQNFEMRVGCTRDVIVISGLPNNTSTERLDILDDERRVTGFSIIGGEHRLTNYKSVTTVHRFEKENRIWTVVLESYVVDMPEGNSEDDTRMFADTVVKLNLQKLATVAEAMARNSGDGSGSQVT
13 | x | A89M: PYR1 mutant (protein, UniProt O49686 1-191, looked up, variant A89M) Abscisic acid receptor PYR1: MPSELTPEERSELKNSIAEFHTYQLDPGSCSSLHAQRIHAPPELVWSIVRRFDKPQTYKHFIKSCSVEQNFEMRVGCTRDVIVISGLPMNTSTERLDILDDERRVTGFSIIGGEHRLTNYKSVTTVHRFEKENRIWTVVLESYVVDMPEGNSEDDTRMFADTVVKLNLQKLATVAEAMARNSGDGSGSQVT
14 | x | P88V: PYR1 mutant (protein, UniProt O49686 1-191, looked up, variant P88V) Abscisic acid receptor PYR1: MPSELTPEERSELKNSIAEFHTYQLDPGSCSSLHAQRIHAPPELVWSIVRRFDKPQTYKHFIKSCSVEQNFEMRVGCTRDVIVISGLVANTSTERLDILDDERRVTGFSIIGGEHRLTNYKSVTTVHRFEKENRIWTVVLESYVVDMPEGNSEDDTRMFADTVVKLNLQKLATVAEAMARNSGDGSGSQVT
15 | x | P88W: PYR1 mutant (protein, UniProt O49686 1-191, looked up, variant P88W) Abscisic acid receptor PYR1: MPSELTPEERSELKNSIAEFHTYQLDPGSCSSLHAQRIHAPPELVWSIVRRFDKPQTYKHFIKSCSVEQNFEMRVGCTRDVIVISGLWANTSTERLDILDDERRVTGFSIIGGEHRLTNYKSVTTVHRFEKENRIWTVVLESYVVDMPEGNSEDDTRMFADTVVKLNLQKLATVAEAMARNSGDGSGSQVT
16 | x | A89L: PYR1 mutant (protein, UniProt O49686 1-191, looked up, variant A89L) Abscisic acid receptor PYR1: MPSELTPEERSELKNSIAEFHTYQLDPGSCSSLHAQRIHAPPELVWSIVRRFDKPQTYKHFIKSCSVEQNFEMRVGCTRDVIVISGLPLNTSTERLDILDDERRVTGFSIIGGEHRLTNYKSVTTVHRFEKENRIWTVVLESYVVDMPEGNSEDDTRMFADTVVKLNLQKLATVAEAMARNSGDGSGSQVT
